For one molecule, Kd results are on record in PMC8651795, “eIF2B-capturing viral protein NSs suppresses the integrated stress response” (Nature Communications, 2021).

For the assay, the target named is T1, human eIF2B (heterodecamer of two copies each of the α-, β-, γ-, δ- and ε-subunits) (human, UniProt Q14232;P49770;Q9NR50;Q9UI10;Q13144).
T1 construct: also called eIF2B decamer; copies: 2 + 2 + 2 + 2 + 2
The experiment in a line: MST. The settings on record: both partners purified.

B1: Sandfly fever Sicilian virus (SFSV) nonstructural protein NSs, wild type (natural protein)
chain: MNSQYMFDYPAINIDVRCHRLLSSVSYVAYNKFHTHDVSTYEHCEIPLEKLRLGFGRRNSLADFYSLGELPASWGPACYFSSVKPMMYTFQGMASDLSRFDLTSFSRKGLPNVLKALSWPLGIPDCEIFSICSDRFVRGLQTRDQLMSYILRMGDSHSLDECIVQAHKKILQEARRLGLSDEHYNGYDLFREIGSLVCLRLINAEPFDTASSGEALDVRTVIRSYRASDPSTGLTEYGNSLWTPIHSHVDENDESSSDSDF
notes: also called SFSV NSs; wild-type SFSV NSs; source: E. coli T7 Express, purified (His-tag resin, HiTrap Q, Superdex 200); not shown: His-tag, C-terminal, kept
For orientation: Kd means the concentration at which binding is half-saturated. B1 yielded a Kd of 16.9 ± 2.8 nM.
